This is an account of results in article PMC7708043 (Nucleic Acids Research, 2020).

Common to all, as to test: FRET or BRET
On the technique in general: Bioluminescence resonance energy transfer reports proximity on the nanometre scale.

Experiment [1] concerns the target T1, mEGFP-ALC1 (UniProt Q86WJ1 1-897).
T1 sequence (looked up): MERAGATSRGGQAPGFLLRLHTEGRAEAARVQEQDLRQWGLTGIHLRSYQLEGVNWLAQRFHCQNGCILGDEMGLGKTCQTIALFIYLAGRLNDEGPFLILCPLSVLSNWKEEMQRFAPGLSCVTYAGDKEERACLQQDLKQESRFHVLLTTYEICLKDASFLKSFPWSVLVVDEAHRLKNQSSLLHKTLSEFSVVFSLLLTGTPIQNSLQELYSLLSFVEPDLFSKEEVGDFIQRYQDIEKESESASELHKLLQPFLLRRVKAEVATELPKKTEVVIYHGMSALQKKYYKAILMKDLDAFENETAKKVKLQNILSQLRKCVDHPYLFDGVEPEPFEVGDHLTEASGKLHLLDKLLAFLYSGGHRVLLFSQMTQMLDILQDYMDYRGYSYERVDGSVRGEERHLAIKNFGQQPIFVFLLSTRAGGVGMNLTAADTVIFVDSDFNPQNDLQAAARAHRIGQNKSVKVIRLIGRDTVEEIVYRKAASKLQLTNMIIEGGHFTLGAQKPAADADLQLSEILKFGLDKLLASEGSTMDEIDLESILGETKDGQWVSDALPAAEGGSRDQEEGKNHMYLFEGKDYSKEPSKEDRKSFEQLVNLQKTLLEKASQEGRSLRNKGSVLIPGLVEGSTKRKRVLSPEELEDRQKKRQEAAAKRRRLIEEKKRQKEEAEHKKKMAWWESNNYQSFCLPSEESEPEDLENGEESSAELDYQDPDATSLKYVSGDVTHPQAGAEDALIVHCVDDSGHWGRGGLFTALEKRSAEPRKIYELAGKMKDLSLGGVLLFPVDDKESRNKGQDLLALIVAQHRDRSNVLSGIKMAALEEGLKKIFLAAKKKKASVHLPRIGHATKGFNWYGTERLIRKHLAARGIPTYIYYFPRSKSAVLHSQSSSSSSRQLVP

For experiment [2], the target named is T2, mEGFP-PARP1 (UniProt P09874 1-1014).
In experiment [3] the target is T2, mEGFP-PARP1. The source holds these as a separate data set.

T2 sequence (P09874 whole entry): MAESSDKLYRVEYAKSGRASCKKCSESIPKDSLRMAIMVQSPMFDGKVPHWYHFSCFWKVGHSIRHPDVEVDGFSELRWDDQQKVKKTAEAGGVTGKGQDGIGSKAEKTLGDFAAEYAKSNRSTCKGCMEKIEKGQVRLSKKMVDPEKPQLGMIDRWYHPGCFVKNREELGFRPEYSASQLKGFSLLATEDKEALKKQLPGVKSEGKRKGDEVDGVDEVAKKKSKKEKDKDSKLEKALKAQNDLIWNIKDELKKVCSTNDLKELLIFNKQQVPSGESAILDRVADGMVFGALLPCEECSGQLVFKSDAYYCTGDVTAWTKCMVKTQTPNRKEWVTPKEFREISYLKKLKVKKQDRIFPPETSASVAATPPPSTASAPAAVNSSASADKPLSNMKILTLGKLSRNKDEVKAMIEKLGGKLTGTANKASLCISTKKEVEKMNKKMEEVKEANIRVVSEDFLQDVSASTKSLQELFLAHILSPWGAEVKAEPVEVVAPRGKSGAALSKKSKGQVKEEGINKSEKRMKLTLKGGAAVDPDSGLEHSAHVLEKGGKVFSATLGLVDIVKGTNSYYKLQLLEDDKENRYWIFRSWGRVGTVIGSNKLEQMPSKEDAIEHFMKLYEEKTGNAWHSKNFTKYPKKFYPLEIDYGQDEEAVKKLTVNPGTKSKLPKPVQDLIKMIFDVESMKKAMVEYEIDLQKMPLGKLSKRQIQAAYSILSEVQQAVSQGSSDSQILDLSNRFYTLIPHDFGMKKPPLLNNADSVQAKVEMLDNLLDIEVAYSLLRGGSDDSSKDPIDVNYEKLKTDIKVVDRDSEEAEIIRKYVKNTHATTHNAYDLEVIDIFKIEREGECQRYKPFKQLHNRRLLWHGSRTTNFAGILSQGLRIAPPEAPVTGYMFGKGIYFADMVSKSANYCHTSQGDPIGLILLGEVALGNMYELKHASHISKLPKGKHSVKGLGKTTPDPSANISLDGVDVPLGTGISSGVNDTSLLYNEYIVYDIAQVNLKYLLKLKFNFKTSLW

B1: mCherry-TRIM33 (natural protein, UniProt Q9UPN9 1-1127, looked up)
chain: MAENKGGGEAESGGGGSGSAPVTAGAAGPAAQEAEPPLTAVLVEEEEEEGGRAGAEGGAAGPDDGGVAAASSGSAQAASSPAASVGTGVAGGAVSTPAPAPASAPAPGPSAGPPPGPPASLLDTCAVCQQSLQSRREAEPKLLPCLHSFCLRCLPEPERQLSVPIPGGSNGDIQQVGVIRCPVCRQECRQIDLVDNYFVKDTSEAPSSSDEKSEQVCTSCEDNASAVGFCVECGEWLCKTCIEAHQRVKFTKDHLIRKKEDVSESVGASGQRPVFCPVHKQEQLKLFCETCDRLTCRDCQLLEHKEHRYQFLEEAFQNQKGAIENLLAKLLEKKNYVHFAATQVQNRIKEVNETNKRVEQEIKVAIFTLINEINKKGKSLLQQLENVTKERQMKLLQQQNDITGLSRQVKHVMNFTNWAIASGSSTALLYSKRLITFQLRHILKARCDPVPAANGAIRFHCDPTFWAKNVVNLGNLVIESKPAPGYTPNVVVGQVPPGTNHISKTPGQINLAQLRLQHMQQQVYAQKHQQLQQMRMQQPPAPVPTTTTTTQQHPRQAAPQMLQQQPPRLISVQTMQRGNMNCGAFQAHQMRLAQNAARIPGIPRHSGPQYSMMQPHLQRQHSNPGHAGPFPVVSVHNTTINPTSPTTATMANANRGPTSPSVTAIELIPSVTNPENLPSLPDIPPIQLEDAGSSSLDNLLSRYISGSHLPPQPTSTMNPSPGPSALSPGSSGLSNSHTPVRPPSTSSTGSRGSCGSSGRTAEKTSLSFKSDQVKVKQEPGTEDEICSFSGGVKQEKTEDGRRSACMLSSPESSLTPPLSTNLHLESELDALASLENHVKIEPADMNESCKQSGLSSLVNGKSPIRSLMHRSARIGGDGNNKDDDPNEDWCAVCQNGGDLLCCEKCPKVFHLTCHVPTLLSFPSGDWICTFCRDIGKPEVEYDCDNLQHSKKGKTAQGLSPVDQRKCERLLLYLYCHELSIEFQEPVPASIPNYYKIIKKPMDLSTVKKKLQKKHSQHYQIPDDFVADVRLIFKNCERFNEMMKVVQVYADTQEINLKADSEVAQAGKAVALYFEDKLTEIYSDRTFAPLPEFEQEEDDGEVTEDSDEDFIQPRRKRLKSDERPVHIK
Consider B1, for which the “median FRET efficiency (at the damage site)” value in experiment [1] came to 2.2%.

B2: mCherry-ALC1 (natural protein, UniProt Q86WJ1 1-897, looked up)
chain: T1 sequence (looked up)
For the molecule B2, in experiment [2], the “median FRET efficiency (1 min after damage)” value worked out at 5.8% and the “median FRET efficiency (5 min after damage)” value was determined as 3.8%. For the same molecule, the “median FRET efficiency (at the damage site)” value in experiment [3] was determined as 5.5%.
